Measured values taken from the supplement of paper PMC10567573.

B1: CLCN6 (parent)
chain: TGLVGLFVDFFVRLFTQLKFGVVQ

Variants of: B1
Assay: protein stability index of a GFP-peptide fusion (GPS, HEK-293T) (PSI 1-6); higher = more stable
Conditions: c terminus: a fixed tail appended
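Also: lentivirally expressed fusions sorted by FACS into six bins by GFP to DsRed ratio, PSI derived from sequencing read proportions per bin multiplied by bin number.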

Protein stability index, by site and new letter:
V12: K 1.91 | I 2.02 | D 1.73 | M 2.47 | Q 2.52 | Y 3.07 | E 1.96
G21: P 2.35 | S 3.08 | E 2.3 | H 3.06 | V 3 | W 3.59 | Q 2.77 | L 3.33 | T 2.4
F20: W 2.63 | G 2.89 | E 3.61 | L 2.96 | Q 3.83 | M 2.77 | C 3.79 | T 3.48
V23: P 1.97 | Q 2.77
Q24: M 1.9 | C 1.26 | E 2.08 | L 2.14 | P 1.88 | I 2.66
Q17: I 1.79 | N 2.44 | F 2.44 | L 2.43 | E 2 | C 2.01 | R 3.5
D9: W 1.51 | Y 1.89 | F 2.17 | C 1.25 | T 1.97 | K 3.08 | E 2.12
G5: K 3.25 | M 2.48 | Q 2.21 | R 2.69 | Y 2.08 | S 2.21
T16: D 2.42 | A 2.43 | R 3.85 | K 2.76 | H 2.78 | E 1.75 | F 2.04 | Q 3
G2: N 1.84 | D 1.64 | T 1.81 | F 3.79 | L 3.27
T1: K 2.83 | L 1.68 | E 1.92 | P 2.59 | I 1.56 | S 2.6 | F 2.1 | M 1.99 | D 2.39 | R 3.29 | H 2.01 | Q 2.17
K19: W 3.05 | D 3.05 | M 3.13 | H 3.23 | E 4.38 | S 2.92
L6: M 2.93 | W 3.31 | Y 3.19 | T 2.71 | R 3.73 | H 3.06 | K 2.44 | P 2.65
F15: Q 3.33 | V 2.72 | C 2.2 | R 2.27 | N 2.67 | D 2.88 | S 2.76 | T 2.51 | W 3.46
L14: P 1.68 | H 1.85 | N 1.83 | F 2.57
R13: K 2.73 | H 2.22 | G 1.54 | S 1.84 | N 1.91 | W 2.1 | M 3.23 | E 2.34 | A 2.04
V22: S 2.33 | P 2.07 | A 1.77 | R 2.34 | M 2.58 | T 2.18
F11: A 2.84 | D 4.03 | C 2.93 | P 2.07
L18: G 2.21 | F 2.46 | M 2.48 | N 3.66 | T 2.75 | D 2.25
F10: E 2.19 | C 1.42 | N 2.32 | M 1.81 | H 1.61 | P 2.17
F7: N 1.84 | S 1.82 | P 2.28 | H 2.44 | A 2.38 | M 2.56 | K 1.78 | Y 2.54 | C 2.89 | R 1.69
V4: I 2.56 | N 2.39 | H 2.28 | S 2.63 | F 2.93 | W 3.63 | A 1.97 | M 2.49
V8: K 2.04 | Y 2.79 | D 2.45 | I 1.74 | G 2.9 | R 2.25 | M 2.08 | P 1.7 | W 3.01 | C 2.25
L3: T 1.65 | E 3.71 | M 2.73 | P 2.45
